For 50 variants, abundance fitness results are on record in the Human Domainome abundance scans (Beltran et al. 2025).

± gives the uncertainty stated by the source.

B1: Metastasis-associated protein MTA3, residues 265 to 317; numbered along this chain, Q9BTC8 (parent)
chain: RDEMEEWSASEASLFEEALEKYGKDFNDIRQDFLPWKSLTSIIEYYYMWKTTD

The variants in the series derive from B1. Briefly: abundance fitness (aPCA) (normalised: wild type 0, dead -1); higher = more abundant; growth selection in yeast, the domain comes from the species named. The settings on record: Homo sapiens.
With RDEMEEWSASEASLFEEALEKKGKDFNDIRQDFLPWKSLTSIIEYYYMWKTTD [Y22K], the abundance fitness was -0.72 ± 0.17.
As to RDEMEEWSASEASLFEEALEKPGKDFNDIRQDFLPWKSLTSIIEYYYMWKTTD [Y22P], the abundance fitness is -0.707 ± 0.17.
The same measure for RDEMEEWSASEASLFEEALEKHGKDFNDIRQDFLPWKSLTSIIEYYYMWKTTD [Y22H]: -0.079 ± 0.093; for RDEMEEWSASEASLFEEALEKNGKDFNDIRQDFLPWKSLTSIIEYYYMWKTTD [Y22N]: -0.712 ± 0.22; for RDEMEEWSASEASLFEEALEKDGKDFNDIRQDFLPWKSLTSIIEYYYMWKTTD [Y22D]: -1.07 ± 0.36.
Take RDEMEEWSASEASLFEEALEKAGKDFNDIRQDFLPWKSLTSIIEYYYMWKTTD [Y22A]: the abundance fitness was -0.687 ± 0.18.
On to RDEMEEWSASEASLFEEALEKIGKDFNDIRQDFLPWKSLTSIIEYYYMWKTTD [Y22I], for which the abundance fitness is 0.078 ± 0.26.
Take RDEMEEWSASEASLFEEALEKQGKDFNDIRQDFLPWKSLTSIIEYYYMWKTTD [Y22Q]: the abundance fitness is -0.921 ± 0.18.
RDEMEEWSASEASLFEEALEKTGKDFNDIRQDFLPWKSLTSIIEYYYMWKTTD [Y22T]: the abundance fitness was -0.599 ± 0.15.
Consider RDEMEEWSASEASLFEEALEKLGKDFNDIRQDFLPWKSLTSIIEYYYMWKTTD [Y22L], for which the abundance fitness was -0.536 ± 0.12.
As for RDEMEEWSASEASLFEEALEKMGKDFNDIRQDFLPWKSLTSIIEYYYMWKTTD [Y22M], the abundance fitness was -0.792 ± 0.11.
RDEMEEWSASEASLFEEALEKSGKDFNDIRQDFLPWKSLTSIIEYYYMWKTTD [Y22S]: the abundance fitness is -0.53 ± 0.088.
As to RDEMEEWSASEASLFEEALEKEGKDFNDIRQDFLPWKSLTSIIEYYYMWKTTD [Y22E], the abundance fitness was -0.856 ± 0.31.
Take RDEMEEWSASEASLFEEALEKGGKDFNDIRQDFLPWKSLTSIIEYYYMWKTTD [Y22G]: the abundance fitness was -0.625 ± 0.15.
The same measure for RDEMEEWSASEASLFEEALEKRGKDFNDIRQDFLPWKSLTSIIEYYYMWKTTD [Y22R]: -0.2 ± 0.079; for RDEMEEWSASEASLFEEALEKCGKDFNDIRQDFLPWKSLTSIIEYYYMWKTTD [Y22C]: 0.26 ± 0.091.
Under RDEMEEWSASEASLFEEALWKYGKDFNDIRQDFLPWKSLTSIIEYYYMWKTTD [E20W] stands -0.613 ± 0.17.
Regarding RDEMEEWSASEASLFEEALTKYGKDFNDIRQDFLPWKSLTSIIEYYYMWKTTD [E20T], the abundance fitness was -0.262 ± 0.077.
RDEMEEWSASEASLFEEALNKYGKDFNDIRQDFLPWKSLTSIIEYYYMWKTTD [E20N]: the abundance fitness was -0.303 ± 0.15.
Turning to RDEMEEWSASEASLFEEALIKYGKDFNDIRQDFLPWKSLTSIIEYYYMWKTTD [E20I], the abundance fitness is -0.267 ± 0.091.
Consider RDEMEEWSASEASLFEEALCKYGKDFNDIRQDFLPWKSLTSIIEYYYMWKTTD [E20C], for which the abundance fitness is -0.682 ± 0.2.
RDEMEEWSASEASLFEEALDKYGKDFNDIRQDFLPWKSLTSIIEYYYMWKTTD [E20D]: the abundance fitness is -0.283 ± 0.12.
For the variant RDEMEEWSASEASLFEEALYKYGKDFNDIRQDFLPWKSLTSIIEYYYMWKTTD [E20Y], the abundance fitness was -0.506 ± 0.13.
With RDEMEEWSASEASLFEEALGKYGKDFNDIRQDFLPWKSLTSIIEYYYMWKTTD [E20G], the abundance fitness was -0.321 ± 0.13.
Under RDEMEEWSASEASLFEEALHKYGKDFNDIRQDFLPWKSLTSIIEYYYMWKTTD [E20H] stands -0.499 ± 0.13; under RDEMEEWSASEASLFEEALAKYGKDFNDIRQDFLPWKSLTSIIEYYYMWKTTD [E20A], 0.007 ± 0.093; under RDEMEEWSASEASLFEEALVKYGKDFNDIRQDFLPWKSLTSIIEYYYMWKTTD [E20V], -0.213 ± 0.13.
Regarding RDEMEEWSASEASLFEEALPKYGKDFNDIRQDFLPWKSLTSIIEYYYMWKTTD [E20P], the abundance fitness was -0.864 ± 0.14.
The same measure for RDEMEEWSASEASLFEEALSKYGKDFNDIRQDFLPWKSLTSIIEYYYMWKTTD [E20S]: -0.366 ± 0.075.
Under RDEMEEWSASEASLFEEALLKYGKDFNDIRQDFLPWKSLTSIIEYYYMWKTTD [E20L] stands -0.126 ± 0.073.
Consider RDEMEEWSASEASLFEEALFKYGKDFNDIRQDFLPWKSLTSIIEYYYMWKTTD [E20F], for which the abundance fitness was -0.54 ± 0.11.
For RDEMEEWSASEASLFEEALMKYGKDFNDIRQDFLPWKSLTSIIEYYYMWKTTD [E20M], the abundance fitness was -0.561 ± 0.15.
As for RDEMEEWSASEASLFEEALELYGKDFNDIRQDFLPWKSLTSIIEYYYMWKTTD [K21L], the abundance fitness was -0.483 ± 0.084.
The same measure for RDEMEEWSASEASLFEEALETYGKDFNDIRQDFLPWKSLTSIIEYYYMWKTTD [K21T]: -0.443 ± 0.12; for RDEMEEWSASEASLFEEALEDYGKDFNDIRQDFLPWKSLTSIIEYYYMWKTTD [K21D]: -0.579 ± 0.21.
Turning to RDEMEEWSASEASLFEEALEGYGKDFNDIRQDFLPWKSLTSIIEYYYMWKTTD [K21G], the abundance fitness was -0.842 ± 0.17.
The same measure for RDEMEEWSASEASLFEEALEYYGKDFNDIRQDFLPWKSLTSIIEYYYMWKTTD [K21Y]: -0.571 ± 0.17; for RDEMEEWSASEASLFEEALEEYGKDFNDIRQDFLPWKSLTSIIEYYYMWKTTD [K21E]: -0.867 ± 0.29.
RDEMEEWSASEASLFEEALEWYGKDFNDIRQDFLPWKSLTSIIEYYYMWKTTD [K21W]: the abundance fitness was -0.801 ± 0.11.
For the variant RDEMEEWSASEASLFEEALESYGKDFNDIRQDFLPWKSLTSIIEYYYMWKTTD [K21S], the abundance fitness is -0.745 ± 0.083.
The same measure for RDEMEEWSASEASLFEEALERYGKDFNDIRQDFLPWKSLTSIIEYYYMWKTTD [K21R]: -0.381 ± 0.11; for RDEMEEWSASEASLFEEALEHYGKDFNDIRQDFLPWKSLTSIIEYYYMWKTTD [K21H]: -0.674 ± 0.17; for RDEMEEWSASEASLFEEALENYGKDFNDIRQDFLPWKSLTSIIEYYYMWKTTD [K21N]: -0.984 ± 0.35.
For the variant RDEMEEWSASEASLFEEALEFYGKDFNDIRQDFLPWKSLTSIIEYYYMWKTTD [K21F], the abundance fitness was -0.504 ± 0.16.
RDEMEEWSASEASLFEEALEPYGKDFNDIRQDFLPWKSLTSIIEYYYMWKTTD [K21P]: the abundance fitness was -0.804 ± 0.1.
For the variant RDEMEEWSASEASLFEEALEIYGKDFNDIRQDFLPWKSLTSIIEYYYMWKTTD [K21I], the abundance fitness is -0.418 ± 0.22.
Consider RDEMEEWSASEASLFEEALEVYGKDFNDIRQDFLPWKSLTSIIEYYYMWKTTD [K21V], for which the abundance fitness was -0.444 ± 0.13.
In the case of RDEMEEWSASEASLFEEALEMYGKDFNDIRQDFLPWKSLTSIIEYYYMWKTTD [K21M], the abundance fitness is -0.763 ± 0.18.
Take RDEMEEWSASEASLFEEALEQYGKDFNDIRQDFLPWKSLTSIIEYYYMWKTTD [K21Q]: the abundance fitness is -0.685 ± 0.1.
Consider RDEMEEWSASEASLFEEALECYGKDFNDIRQDFLPWKSLTSIIEYYYMWKTTD [K21C], for which the abundance fitness is -0.683 ± 0.34.
